Measured values published in patent US20240343788A1 (published 2024).

Target: T1, A155
T1 construct: also called antibody-based multispecific antagonist A155
Test: BLI (Octet RED96), antagonist captured on biosensor, ligand in solution
From the text: The binding sensorgrams were collected using the 8-channel detection mode on the biosensor.

Kd: ~20 nM
B1: TGF-β3 (ligand)
chain: ALDTNYCFRNLEENCCVRPLYIDFRQDLGWKWVHEPKGYYANFCSGPCPYLRSADTTHSTVLGLYNTLNPEASASPCCVPQDLEPLTILYYVGRTPKVEQLSNMVVKSCKCS
notes: also called TGF-33 (misprint in the text)
